Assay results: patent US20230340160A1 (published 2023)

Tests used:
human FcγRIIIa-V158 [1] = molecular target: T1, human FcγRIIIa-V158 (human, UniProt P08637 17-208); test: SPR (Biacore T100, 25 °C); receptor captured on anti-Penta His, construct as analyte 500 - 4000 nM; steady state
T1 construct: His-tagged recombinant receptor captured on anti-Penta His antibody in SPR; also called huFcγRIIIa-V158-K6H6; HuFcγRIIIa-V158-K6H6; not shown: K6H6 tag, named only by this short form
Experimental: (§1) For analyzing interaction of different Fc-variants with human FcγRIIIa-V158 and murine FcγRIV direct coupling of around 6,500 resonance units (RU) of the anti-Penta His antibody (Qiagen) is performed on a CM5 chip at pH 5.0 using the standard amine coupling kit (Biacore, Freiburg/Germany). HuFcγRIIIa-V158-K6H6 and muFcγRIV-aviHis-biotin are captured for 60 s at 4 and 10 nM respectively.
(§2) Constructs with different Fc-mutations are passed through the flow cells for 120 s at a concentration of 1000 nM with a flow rate of 30 µl/min. The dissociation is monitored for 220 s. Bulk refractive index differences are corrected for by subtracting the response obtained in a reference flow cell. Here, the Fc-variants are flown over a surface with immobilized anti-Penta His antibody but on which HBS-EP has been injected rather than HuFcγRIIIa-V158-K6H6 or muFcγRIV-aviHis-biotin. Affinity for human FcγRIIIa-V158 and murine FcγRIV was determined for wild-type Fc using a concentration range from 500 - 4000 nM.
(§3) The steady state response was used to derive the dissociation constant KD by non-linear curve fitting of the Langmuir binding isotherm. Kinetic constants were derived using the Biacore T100 Evaluation Software (vAA, Biacore AB, Uppsala/Sweden), to fit rate equations for 1:1 Langmuir binding by numerical integration.

murine FcγRIV [2] = molecular target: T2, murine FcγRIV (murine); test: as above
T2 construct: Captured on anti-Penta His antibody in SPR; also called muFcγRIV-aviHis-biotin
T2 sequence (A0A0B4J1G0 21-203): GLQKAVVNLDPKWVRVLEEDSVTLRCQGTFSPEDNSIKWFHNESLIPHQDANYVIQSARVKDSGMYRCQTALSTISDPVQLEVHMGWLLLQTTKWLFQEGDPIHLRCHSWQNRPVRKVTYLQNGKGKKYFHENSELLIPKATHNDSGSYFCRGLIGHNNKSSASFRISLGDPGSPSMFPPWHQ
Experimental: as §1, §2, §3

murine FcγRIV [3] = molecular target: T2, murine FcγRIV; test: SPR (Biacore T100, 25 °C); receptor captured on anti-Penta His, construct as analyte; kinetic
Experimental: as §1, §2, §3

human FcγRIIIa-V158 [4] = molecular target: T1, human FcγRIIIa-V158; test: SPR (Biacore T100, 25 °C); His-tagged receptor captured on anti-Penta His, construct as analyte; kinetic 1:1 fit, one concentration (1000 nM)
Experimental: as §1, §2, §3

human FcγRIIIa-V158 [5] = molecular target: T1, human FcγRIIIa-V158; test: SPR (Biacore T100, 25 °C); receptor captured on anti-Penta His, construct as analyte; kinetic; second value in parentheses, not explained
Experimental: as §1, §2, §3

human FcγRIIIa-V158 [6] = molecular target: T1, human FcγRIIIa-V158; test: SPR (Biacore T100, 25 °C); receptor captured on anti-Penta His, construct as analyte; kinetic 1:1 fit, one concentration (1000 nM)
Experimental: as §1, §2, §3

[7] = molecular target: T3, human CD3 expressed on Jurkat cells (human, UniProt P07766 23-207); test: flow cytometry on Jurkat cells, 50 nM
T3 construct: CD3 complex on Jurkat cells (ATCC TIB-152); also called huCD3
T3 sequence (P07766 23-207 limits assumed): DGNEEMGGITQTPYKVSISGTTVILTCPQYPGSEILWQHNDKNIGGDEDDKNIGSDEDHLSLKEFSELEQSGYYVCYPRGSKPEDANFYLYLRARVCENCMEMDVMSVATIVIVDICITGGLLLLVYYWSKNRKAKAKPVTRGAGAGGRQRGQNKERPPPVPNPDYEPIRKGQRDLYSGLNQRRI
Experimental: (§4) Binding of the different bispecific constructs to CD3 on Jurkat cells (ATCC #TIB-152), and the respective tumor antigen on target cells, was determined by FACS. Briefly, cells were harvested, counted and checked for viability. 0.15 - 0.2 million cells per well (in PBS containing 0.1% BSA; 90 µl) were plated in a round-bottom 96-well plate and incubated with the indicated concentration of the bispecific constructs and corresponding IgG controls (10 µl) for 30 min at 4° C. For a better comparison, all constructs and IgG controls were normalized to same molarity. After the incubation, cells were centrifuged (5 min, 350 × g), washed with 150 µl PBS containing 0.1% BSA, resuspended and incubated for further 30 min at 4° C. with 12 µl/well of a FITC-or PE-conjugated secondary antibody. Bound constructs were detected using a FACSCantoII (Software FACS Diva). The “(scFv)₂” molecule was detected using a FITC-conjugated anti-His antibody (Lucerna, #RHIS-45F-Z). For all other molecules, a FITC- or PE-conjugated AffiniPure F(ab′)2 Fragment goat anti-human IgG Fcγ Fragment Specific (Jackson Immuno Research Lab # 109-096-098 / working solution 1:20, or #109-116-170 / working solution 1:80, respectively) was used. Cells were washed by addition of 120 µl/well PBS containing 0.1% BSA and centrifugation at 350 × g for 5 min. A second washing step was performed with 150 µl/well PBS containing 0.1% BSA. Unless otherwise indicated, cells were fixed with 100 µl/well fixation buffer (BD #554655) for 15 min at 4° C. in the dark, centrifuged for 6 min at 400 × g and kept in 200 µl/well PBS containing 0.1% BSA until the samples were measured with FACS CantoII. EC50 values were calculated using the GraphPad Prism software.
(§5) In a first experiment, different bispecific constructs targeting human MCSP and human CD3 were analyzed by flow cytometry for binding to human CD3 expressed on Jurkat, human T cell leukaemia cells, or to human MCSP on Colo-38 human melanoma cells.

[8] = molecular target: T4, human MCSP expressed on tumor cells (human, UniProt Q6UVK1 30-2322); test: flow cytometry on Colo-38 cells, 50 nM
T4 construct: whole, on cells; On Colo-38, WM266-4, MV-3 or MDA-MB-435 cells, as named in each row; also called huMCSP; Melanoma-associated Chondroitin Sulfate Proteoglycan
T4 sequence (Q6UVK1 30-2322): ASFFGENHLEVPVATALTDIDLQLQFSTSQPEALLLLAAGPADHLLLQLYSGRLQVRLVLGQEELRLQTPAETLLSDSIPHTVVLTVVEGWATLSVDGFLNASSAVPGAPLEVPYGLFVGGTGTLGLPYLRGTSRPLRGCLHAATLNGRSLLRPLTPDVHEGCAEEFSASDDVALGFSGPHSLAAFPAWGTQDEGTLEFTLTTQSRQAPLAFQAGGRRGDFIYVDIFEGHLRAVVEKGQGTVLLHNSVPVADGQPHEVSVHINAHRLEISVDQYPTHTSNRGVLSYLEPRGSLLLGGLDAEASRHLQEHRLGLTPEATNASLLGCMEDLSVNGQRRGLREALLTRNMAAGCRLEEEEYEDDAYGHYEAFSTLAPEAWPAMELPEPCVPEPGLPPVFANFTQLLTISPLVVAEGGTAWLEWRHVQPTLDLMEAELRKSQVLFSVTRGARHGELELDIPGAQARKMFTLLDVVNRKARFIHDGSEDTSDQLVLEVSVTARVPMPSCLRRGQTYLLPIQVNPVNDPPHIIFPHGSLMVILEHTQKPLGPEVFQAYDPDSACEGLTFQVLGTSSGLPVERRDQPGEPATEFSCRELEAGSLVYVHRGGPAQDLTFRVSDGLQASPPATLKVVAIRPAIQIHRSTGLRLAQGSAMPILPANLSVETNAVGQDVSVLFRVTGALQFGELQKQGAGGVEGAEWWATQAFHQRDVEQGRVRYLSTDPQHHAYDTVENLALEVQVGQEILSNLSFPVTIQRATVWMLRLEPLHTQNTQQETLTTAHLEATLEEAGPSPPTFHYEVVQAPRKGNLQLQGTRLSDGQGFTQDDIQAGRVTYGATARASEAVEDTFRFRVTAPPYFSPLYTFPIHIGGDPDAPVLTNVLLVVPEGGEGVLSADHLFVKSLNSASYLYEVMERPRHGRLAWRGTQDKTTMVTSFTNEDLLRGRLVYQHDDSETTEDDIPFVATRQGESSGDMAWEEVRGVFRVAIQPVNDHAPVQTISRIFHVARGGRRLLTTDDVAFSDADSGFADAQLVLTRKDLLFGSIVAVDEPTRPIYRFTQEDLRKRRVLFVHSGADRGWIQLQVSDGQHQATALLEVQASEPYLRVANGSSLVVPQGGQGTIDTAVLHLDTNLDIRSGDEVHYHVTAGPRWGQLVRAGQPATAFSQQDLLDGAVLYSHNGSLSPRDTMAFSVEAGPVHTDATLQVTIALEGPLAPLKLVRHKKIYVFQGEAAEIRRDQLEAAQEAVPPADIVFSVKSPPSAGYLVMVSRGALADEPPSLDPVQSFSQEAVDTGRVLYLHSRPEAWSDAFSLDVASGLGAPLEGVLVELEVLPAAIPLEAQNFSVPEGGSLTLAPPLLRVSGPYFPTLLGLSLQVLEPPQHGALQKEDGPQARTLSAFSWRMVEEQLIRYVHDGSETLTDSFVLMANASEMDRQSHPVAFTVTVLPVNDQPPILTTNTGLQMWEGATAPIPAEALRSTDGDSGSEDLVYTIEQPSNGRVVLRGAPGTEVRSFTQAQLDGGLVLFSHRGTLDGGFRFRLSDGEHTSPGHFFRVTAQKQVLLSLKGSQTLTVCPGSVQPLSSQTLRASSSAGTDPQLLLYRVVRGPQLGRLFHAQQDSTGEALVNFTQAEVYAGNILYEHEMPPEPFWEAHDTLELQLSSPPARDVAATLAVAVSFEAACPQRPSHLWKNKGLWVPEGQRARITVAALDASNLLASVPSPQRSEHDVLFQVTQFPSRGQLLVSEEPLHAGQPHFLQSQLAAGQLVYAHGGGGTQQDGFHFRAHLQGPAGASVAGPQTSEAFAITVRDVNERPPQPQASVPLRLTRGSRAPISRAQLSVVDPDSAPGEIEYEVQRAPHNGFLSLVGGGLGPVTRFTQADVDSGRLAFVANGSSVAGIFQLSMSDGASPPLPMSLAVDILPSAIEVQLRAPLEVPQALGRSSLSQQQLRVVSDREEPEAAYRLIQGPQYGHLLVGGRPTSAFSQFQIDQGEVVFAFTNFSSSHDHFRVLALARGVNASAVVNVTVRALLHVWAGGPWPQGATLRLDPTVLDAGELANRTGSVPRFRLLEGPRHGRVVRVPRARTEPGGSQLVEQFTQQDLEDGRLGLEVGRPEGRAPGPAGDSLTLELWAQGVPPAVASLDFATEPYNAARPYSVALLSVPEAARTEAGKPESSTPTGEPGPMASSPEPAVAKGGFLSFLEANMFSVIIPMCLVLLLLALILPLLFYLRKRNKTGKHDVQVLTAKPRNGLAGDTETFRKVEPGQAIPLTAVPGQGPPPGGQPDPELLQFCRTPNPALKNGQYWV
Experimental: as §4, §5

[9] = molecular target: T5, Human EGFR (immobilized on CM5 sensor chip) (human, UniProt P00533 25-645, limits assumed); test: SPR; construct (200 nM) captured on immobilized human EGFR, then CD3 fusion injected (FIG. 18C)
T5 construct: 8000 RU immobilized by amine coupling; also called Epidermal Growth Factor Receptor
Experimental: (§6) Analysis of simultaneous binding of the T-cell bispecific constructs to the tumor antigen and the human CD3ε was performed by direct coupling of 1650 resonance units (RU) of biotinylated D3 domain of MCSP on a sensor chip SA using the standard coupling procedure. Human EGFR was immobilized using standard amino coupling procedure. 8000 RU were immobilized on a CM5 sensor chip at pH 5.5.
(§7) Different T-cell bispecific constructs were captured for 60 s at 200 nM. Human CD3γ(G₄S)₅CD3ε-AcTev-Fc(knob)-Avi/Fc(hole) was subsequently passed at a concentration of 2000 nM and a flow rate of 40 µl/min for 60 s. Bulk refractive index differences were corrected for by subtracting the response obtained on a reference flow cell where the recombinant CD3ε was flown over a surface with immobilized D3 domain of MCSP or EGFR without captured T-cell bispecific constructs.

[10] = molecular target: T5, Human EGFR (immobilized on CM5 sensor …); test: SPR; construct (200 nM) captured on immobilized human EGFR, then CD3 fusion injected (FIG. 18D)
Experimental: as §6, §7

T1 sequence (P08637 17-208 F176V): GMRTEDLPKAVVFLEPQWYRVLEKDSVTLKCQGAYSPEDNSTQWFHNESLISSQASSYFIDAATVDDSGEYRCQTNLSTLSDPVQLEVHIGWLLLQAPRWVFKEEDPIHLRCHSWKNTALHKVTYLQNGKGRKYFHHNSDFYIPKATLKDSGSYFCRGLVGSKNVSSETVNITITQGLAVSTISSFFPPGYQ

B1: “2+1 IgG scFab, wt” (anti-MCSP/anti-huCD3) (bispecific antibody)
heavy 1: not shown
heavy 2: not shown
light: DIVLTQSPSSLSASLGDRVTISCSASQGIRNYLNWYQQRPDGTVKLLIYYTSSLHSGVPSRFSGSGSGTDYSLTISNLEPEDIATYYCQQYSKLPWTFGGGTKLEIKRTVAAPSVFIFPPSDEQLKSGTASVVCLLNNFYPREAKVQWKVDNALQSGNSQESVTEQDSKDSTYSLSSTLTLSKADYEKHKVYACEVTHQGLSSPVTKSFNRGEC
notes: LC007 (MCSP, two Fabs) x V9 (CD3, one scFab); wild-type Fc domain with knob/hole; also called Fc-wt
**Q.** Which Kd (human FcγRIIIa-V158 [1]) does the source give for B1 here?
**A.** 3.47 µM

**Q.** What about the Kd (murine FcγRIV [2]) of the same binder?
**A.** 1.5 µM

**Q.** What about the Kd (murine FcγRIV [3]) of the same binder?
**A.** 0.576 µM

**Q.** What about the Kd (human FcγRIIIa-V158 [4]) of the same binder?
**A.** 0.6 µM

**Q.** And the Kd (human FcγRIIIa-V158 [5])?
**A.** 1.2 µM

B2: “2+1 IgG scFab, LALA” (anti-MCSP/anti-huCD3) (bispecific antibody)
heavy 1: not shown
heavy 2: EVQLQESGPGLVKPSQSLSLTCSVTGYSITSGYYWNWIRQFPGNKLEWMGYITYDGSNNYNPSLKNRISITRDTSKNQFFLKLNSVTTEDTATYYCADFDYWGQGTTLTVSSASTKGPSVFPLAPSSKSTSGGTAALGCLVKDYFPEPVTVSWNSGALTSGVHTFPAVLQSSGLYSLSSVVTVPSSSLGTQTYICNVNHKPSNTKVDKKVEPKSCDKTHTCPPCPAPEAAGGPSVFLFPPKPKDTLMISRTPEVTCVVVDVSHEDPEVKFNWYVDGVEVHNAKTKPREEQYNSTYRVVSVLTVLHQDWLNGKEYKCKVSNKALPAPIEKTISKAKGQPREPQVCTLPPSRDELTKNQVSLSCAVKGFYPSDIAVEWESNGQPENNYKTTPPVLDSDGSFFLVSKLTVDKSRWQQGNVFSCSVMHEALHNHYTQKSLSLSPGK
light: DIVLTQSPSSLSASLGDRVTISCSASQGIRNYLNWYQQRPDGTVKLLIYYTSSLHSGVPSRFSGSGSGTDYSLTISNLEPEDIATYYCQQYSKLPWTFGGGTKLEIKRTVAAPSVFIFPPSDEQLKSGTASVVCLLNNFYPREAKVQWKVDNALQSGNSQESVTEQDSKDSTYSLSSTLTLSKADYEKHKVYACEVTHQGLSSPVTKSFNRGEC
notes: also called Fc-LALA
**Q.** B2 was tested. Which Kd (human FcγRIIIa-V158 [6]) did it give?
**A.** 2.13 µM

**Q.** Does B2 bind [7]?
**A.** binds

**Q.** Does B2 bind [8]?
**A.** binds

B3: “1+1 IgG scFab, one armed inverted” (anti-EGFR/anti-huCD3) (bispecific antibody)
heavy 1: not shown
heavy 2: EVQLVESGGGLVQPGGSLRLSCAASGYSFTGYTMNWVRQAPGKGLEWVALINPYKGVSTYNQKFKDRFTISVDKSKNTAYLQMNSLRAEDTAVYYCARSGYYGDSDWYFDVWGQGTLVTVSSASTKGPSVFPLAPSSKSTSGGTAALGCLVKDYFPEPVTVSWNSGALTSGVHTFPAVLQSSGLYSLSSVVTVPSSSLGTQTYICNVNHKPSNTKVDKKVEPKSCDKTHTCPPCPAPEAAGGPSVFLFPPKPKDTLMISRTPEVTCVVVDVSHEDPEVKFNWYVDGVEVHNAKTKPREEQYNSTYRVVSVLTVLHQDWLNGKEYKCKVSNKALGAPIEKTISKAKGQPREPQVCTLPPSRDELTKNQVSLSCAVKGFYPSDIAVEWESNGQPENNYKTTPPVLDSDGSFFLVSKLTVDKSRWQQGNVFSCSVMHEALHNHYTQKSLSLSPGK
light: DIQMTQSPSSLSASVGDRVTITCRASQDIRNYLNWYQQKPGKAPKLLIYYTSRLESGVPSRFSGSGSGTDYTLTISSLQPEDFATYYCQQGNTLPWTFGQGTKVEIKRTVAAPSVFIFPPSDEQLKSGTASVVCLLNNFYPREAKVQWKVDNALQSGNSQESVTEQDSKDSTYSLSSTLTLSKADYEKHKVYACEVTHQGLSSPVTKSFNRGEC
**Q.** Does B3 bind [9]?
**A.** binds

B4: “1+1 IgG scFab” (anti-EGFR/anti-huCD3) (bispecific antibody)
heavy: not shown
chain: DKTHTCPPCPAPEAAGGPSVFLFPPKPKDTLMISRTPEVTCVVVDVSHEDPEVKFNWYVDGVEVHNAKTKPREEQYNSTYRVVSVLTVLHQDWLNGKEYKCKVSNKALGAPIEKTISKAKGQPREPQVCTLPPSRDELTKNQVSLSCAVKGFYPSDIAVEWESNGQPENNYKTTPPVLDSDGSFFLVSKLTVDKSRWQQGNVFSCSVMHEALHNHYTQKSLSLSPGK
light: DIQMTQSPSSLSASVGDRVTITCRASQGINNYLNWYQQKPGKAPKRLIYNTNNLQTGVPSRFSGSGSGTEFTLTISSLQPEDFATYYCLQHNSFPTFGQGTKLEIKRTVAAPSVFIFPPSDEQLKSGTASVVCLLNNFYPREAKVQWKVDNALQSGNSQESVTEQDSKDSTYSLSSTLTLSKADYEKHKVYACEVTHQGLSSPVTKSFNRGEC
**Q.** Does B4 bind [10]?
**A.** binds
